Data on one molecule can be found in paper PMC6657678, “The Bub1-TPR Domain Interacts Directly with Mad3 to Generate Robust Spindle Checkpoint Arrest” (Current Biology, 2019).

This test deals with T1, His-Bub1TPR (fission yeast Bub1 residues 22-184) (S. pombe, UniProt O94751 22-184).
T1 construct: Bub1, S. pombe, TPR domain, residues 22-184; Cloned into pET-DUET; also called recombinant Bub1-TPR; source: E. coli ArcticExpress, purified (cobalt IMAC, dialysis); not shown: His, N-terminal, kept
T1 sequence (looked up): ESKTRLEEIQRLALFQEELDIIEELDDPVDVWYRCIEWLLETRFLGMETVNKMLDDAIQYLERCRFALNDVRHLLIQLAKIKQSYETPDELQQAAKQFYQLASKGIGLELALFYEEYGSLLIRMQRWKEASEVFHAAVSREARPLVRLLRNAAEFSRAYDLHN
In words: SEC; Superdex 200 increase 10/300 in 50 mM Tris pH 8.0, 150 mM NaCl, 5% glycerol, 2 mM DTT; proteins alone and mixed, fractions on SDS-PAGE. The settings on record: both partners purified. On the technique in general: SEC sorts molecules by how far they enter the pores of the column.

B1: His-GFP-Mad3TPR (fission yeast Mad3 residues 44-201) (domain or fragment, S. pombe, UniProt O59767 44-201, looked up)
chain: TEKEVAGLQKERMGHERKIETSESLDDPLQVWIDYIKWTLDNFPQGETKTSGLVTLLERCTREFVRNPLYKDDVRYLRIWMQYVNYIDEPVELFSFLAHHHIGQESSIFYEEYANYFESRGLFQKADEVYQKGKRMKAKPFLRFQQKYQQFTHRWLEF
notes: Mad3, S. pombe, TPR domain, residues 44-201; Cloned into the 9GFP (N-terminal His-GFP tag) LIC vector; source: E. coli ArcticExpress, purified (cobalt IMAC, dialysis); not shown: His, N-terminal, kept; GFP, N-terminal, kept
B1: the binding result is on record as “binds”.
